Measurements as given in patent US20230218771A1, “SELF-ASSEMBLING PRODRUGS AS IMMUNE BOOSTERS FOR CANCER IMMUNOTHERAPY” (priority 2020, published 2023).
Where a SMILES comes first, the peptide text is derived from it. Bridges are numbered along the chain shown (N, C = ends). [ ]: non-standard residue; d: D form. The star is where a group is joined. ξ: configuration not given here. X1 = CC[C@@]1(OC(=O)OCCSSC[C@H](NC(C)=O)C(=O)*)C(=O)OCc2c1cc1n(c2=O)Cc2cc3ccccc3nc2-1; S(CH2)2OCO2(CPT-20-yl) = CC[C@@]1(OC(=O)OCCS*)C(=O)OCc2c1cc1n(c2=O)Cc2cc3ccccc3nc2-1; ξR = N=C(N)NCCCC(N)C(=O)O

Assays:
[1] = Intratumoral retention of Cy7-labeled CDA (IVIS); format: in vivo, GL-261 tumor-bearing mice; settings: intratumoral injection
Procedure: At predetermined time points, fluorescence images were recorded by an IVIS Spectrum imaging system (Perkin Elmer).

GL-261 tumors = assay: Tumor tissue penetration, fluorescence imaging of tumor sections (NT vs NT-Sham); format: in vivo, GL-261 tumor-bearing mice; settings: day 3 after intratumoral injection
Text: FIG. 39 is fluorescence imaging of tumor sections to specifically analyze the information from tumor areas of GL-261 tumor-bearing mice that intratumoral injected with NT-Sham (NTs formed from diCPT-iRGRD) or NT. The images were obtained on day 3 day after treatment. Blue: CPT (Excitation at 365 nm), Red: DRAQS™ stained nuclei, scale bar: 500 μm.

[2] = GSH responsive drug release of CPT prodrugs; format: in vitro ADME; settings: presence of GSH, within 2 hours
Procedure: Briefly, 20 mM glutathione (GSH) and 400 μM diCPT-PLGLAG-iRGD or diCPT-iRGD stock solutions were prepared in water or PBS (pH 7.4). Equal volumes of GSH and diCPT-PLGLAG-iRGD or diCPT-iRGD solutions were then mixed to reach a final GSH concentration of 10 mM and the mixtures were incubated at 37° C. Samples were then taken at predetermined time points (0, 0.5, 1, 2, 4, 8, 12 and 24 h) and quantified using HPLC.

GL-261 tumor spheroids = assay: Inhibition of tumor spheroids; format: cell-based; settings: CPT concentration of 5 μM
Procedure: GL-261 cells were seeded at a density of 1×10^4 cells/well into agarose coated 48-well plates. After the culture plates were incubated at 37° C. for 7 days, the spheroids were treated with free CPT, NT and P-NT at the CPT concentration of 5 μM. The tumor spheroids were photographed every two days. Growth inhibition was evaluated by measuring the size of the tumor spheroids. Volume of the tumor spheroids was calculated using the equation […], with dmax dmin representing the maximum and minimum diameter of the spheroid, respectively.

[3] = In vivo hydrogel formation and degradation after subcutaneous injection; parameters: species or system C57BL/6 mice; settings: within 45 days
Procedure: 100 μl of 7.2 mM P-NT solution or diCPT-iRGD NT solution (5.75 mM, 100 μL) was injected into the back of C57BL/6 mice. The mice were then sacrificed at predetermined time points (1 hour, 5, 15, 30 and 45 days). The remaining hydrogel in each mouse was photographed and the amount of drug that persisted within the hydrogel was determined using HPLC.

GL-261 cells = assay: Cytotoxicity assay (MTT or WST-1); format: cell-based; settings: 48 h incubation
Procedure: GL-261 cells (2.5×10^3 cells/well) were incubated in a 96-well plate overnight. The cells were then treated with varying concentrations of CPT or diCPT-PLGLAG-iRGD or diCPT-iRGD solutions, with untreated cells used as a control. After 48 h incubation, cell viability was tested using an MTT or WST-1 assay. The percentage of cell viability was calculated as follows: Cell Viability (%)=A570sample/A570control×100%. IC50 values of the drug formulations were analyzed using Graph Pad Prism 5.

Molecule: Nc1ncnc2c1ncn2[C@@H]1O[C@@H]2COP(O)(=S)O[C@@H]3C(O)[C@@H](COP(O)(=S)O[C@H]2[C@H]1O)O[C@H]3n1cnc2c(N)ncnc21 (stereo partly shown) [free CDA, 2′3′-c-di-AM(PS)2 (Rp,Rp)]
- CDA fluorescence signal in tumors [1]: virtually no fluorescence signal observed five days after injection

Molecule: CC[C@@]1(OC(=O)OCCSSC[C@H](NC(C)=O)C(=O)NCCCC[C@H](NC(=O)[C@H](CSSCCOC(=O)O[C@]2(CC)C(=O)OCc3c2cc2n(c3=O)Cc3cc4ccccc4nc3-2)NC(C)=O)C(=O)N[C@H]2CSSC[C@@H](C(N)=O)NC(=O)[C@H](CC(=O)O)NC(=O)[C@@H]3CCCN3C(=O)CNC(=O)C(CCCNC(=N)N)NC(=O)[C@H](CC(=O)O)NC(=O)CNC(=O)[C@H](CCCNC(=N)N)NC2=O)C(=O)OCc2c1cc1n(c2=O)Cc2cc3ccccc3nc2-1 (stereo partly shown) [diCPT-iRGD] (Ac-C(S(CH2)2OCO2(CPT-20-yl))K(X1)CRGD[ξR]GPDC-NH2; disulfide 3-11)
- CPT fluorescence at the tumor periphery (GL-261 tumors): distinct CPT fluorescence can be observed throughout the tumor and even at the tumor periphery
- free CPT released [2]: ~100%
- cytotoxicity against 3D tumor spheroids (GL-261 tumor spheroids): potent cytotoxicity
- hydrogel degraded [3]: approximately 75%
- cytotoxicity against GL-261 brain tumor cells (GL-261 cells): potent cytotoxicity

B1: Human MMP2 recombinant protein (protein)
chain: APSPIIKFPGDVAPKTDKELAVQYLNTFYGCPKESCNLFVLKDTLKKMQKFFGLPQTGDLDQNTIETMRKPRCGNPDVANYNFFPRKPKWDKNQITYRIIGYTPDLDPETVDDAFARAFQVWSDVTPLRFSRIHDGEADIMINFGRWEHGDGYPFDGKDGLLAHAFAPGTGVGGDSHFDDDELWTLGEGQVVRVKYGNADGEYCKFPFLFNGKEYNSCTDTGRSDGFLWCSTTYNFEKDGKYGFCPHEALFTMGGNAEGQPCKFPFRFQGTSYDSCTTEGRTDGYRWCGTTEDYDRDKKYGFCPETAMSTVGGNSEGAPCVFPFTFLGNKYESCTSAGRSDGKMWCATTANYDDDRKWGFCPDQGYSLFLVAAHEFGHAMGLEHSQDPGALMAPIYTYTKNFRLSQDDIKGIQELYGASPDIDLGTGPTPTLGPVTPEICKQDIVFDGIAQIRGEIFFFKDRFIWRTVTPRDKPMGPLLVATFWPELPEKIDAVYEAPQEEKAVFFAGNEYWIYSASTLERGYPKPLTSLGLPPDVQRVDAAFNWSKNKKTYIFAGDKFWRYNEVKKKMDPGFPKLIADAWNAIPDNLDAVVDLQGGGHSYFFKGAYYLKLENQSLKSVKFGSIKSDWLGC
- degradation of diCPT-PLGLAG-iRGD by MMP-2 (HPLC, 200 uM conjugate, 2 ug/ml MMP-2, 37 C) (diCPT-PLGLAG-iRGD): 54% cleaved after 8 hours
